{"source": "patent US6653088", "about": "(AVENTIS PHARMA S A, dated 2003)", "binders": {"B1": {"name": "S-tag-PS2Nt (recombinant PS2NT protein produced in bacterium) (other, not shown: small tags and cut ends)", "chain": "MLTFMASDSEEEVCDERTSLMSAESPTPRSCQEGRQGPEDGENTAQWRSQENEEDGEEDPDRYVCSGVPGRPPGLEEELTLKYGAKH", "notes": "also called unlabelled PS2NT"}, "B2": {"name": "amyline (peptide, UniProt P10997 34-70, looked up)", "peptide": "KCNTATCATQRLANFLVHSSNNFGAILSSTNVGSNTY", "notes": "also called another amyloidogenous peptide"}, "B3": {"name": "cytoplasmic domain of the APP (MC45F) (other, not shown: small tags and cut ends)", "chain": "KKQYTSIHHGVVEVDAAVTPEERHLSKMQQNGYENPTYKFFEQMQNDYDDDDK", "notes": "also called cytoplasmic domain of APP; the 45 last residues of the APP"}}, "key": {"biot-3K-Aβ42RR": {"target": "T1, biot-3K-Aβ42RR (UniProt P05067 672-713, biotin at the N-terminal end)", "T1 construct": "domain: Aβ1-42; also called biot-Aβ42; biot-Aβ1-42", "experiment": "HTRF competition; unlabelled PS2NT displaces PS2NT-K from biot-Aβ42"}, "[1]": {"target": "B1", "experiment": "96-well plate test (ELISA type), peptide on plastic, S-tag detection", "description": "The plates are rinsed twice with PBS and the non-specific immobilization sites are saturated by incubation with 5% (w/v) of bovine serum albumin in PBS. […] The detection of the signal is carried out in a spectrophotometer at 450 nm.\nThe Aβ peptide (Aβ40 or Aβ42) is immobilized by incubation on plastic 96-well plates."}, "presenilin 2 (PS2)": {"target": "T2, presenilin 2 (PS2) (human, UniProt P49810 1-448)", "T2 construct": "whole, on cells; Full-length membrane protein; complexes formed in transfected COS cells and were analysed in detergent lysates; also called complete PS2; STM2", "experiment": "co-immunoprecipitation from cotransfected COS cells, detection with αCT43", "experimental": "For immunoprecipitation, 100 μg of proteins are diluted in 400 μl of modified RIPA (150 mM NaCl, 50 mM Tris pH 8.0, 1% TRITON X100 v/v, 1% NP40 v/v). Thirty microlitres of protein A Sepharose suspension (0.1% m/v in PBS solution) and 3 μl of antibody are added. The suspensions are gently mixed on a rotating shaker at 4° C. for one night. The protein A Sepharose complex is washed 3 times with 0.5 ml of modified RIPA and once with 0.5 ml of \"Wash C\" washing buffer (10 mM Tris pH 7.5)."}}, "data": [{"binder": "B1", "values": [{"measurement": "IC50", "setting": "biot-3K-Aβ42RR", "result": 400, "unit": "nM"}]}, {"binder": "B2", "values": [{"measurement": "binding result", "setting": "[1]", "result": "no binding"}]}, {"binder": "B3", "values": [{"measurement": "binding result", "setting": "presenilin 2 (PS2)", "result": "no binding"}]}]}
